Source: patent US20190374506A1 (BETH ISREAL DEACONESS MEDICAL CENTER, published 2019)

Target: T1, HA-PTEN (human, UniProt P60484 1-403)
T1 construct: Expressed in DU145 cells and immunoprecipitated with anti-PTEN antibody for mass spectrometry; also called exogenous PTEN; pcDNA3-HA-PTEN; not shown: HA tag
Test: anti-PTEN immunoprecipitation from DU145 cells transfected with HA-PTEN, SDS-PAGE, mass-spectrometric peptide sequencing of the bands (association in the precipitate)
Source text: FIG. 2A is a Western blot. Lysates from DU145 cells transfected with HA-PTEN were immunoprecipitated with an anti-PTEN antibody followed by mass-spectrometric peptide sequencing. WWP1 and NEDD4-1 were identified.
In order to identify the E3 ligases that induce PTEN atypical K27-linked poly-ubiquitination, exogenous PTEN was immunoprecipitated from DU145 cells, followed by identification of the proteins that interacted with PTEN by mass spectrometry (FIG. 2A; FIG. 18).

Row | binding result | Binder
1 | binds | Structural maintenance of chromosomes protein 3 (other) MYIKQVIIQGFRSYRDQTIVDPFSSKHNVIVGRNGSGKSNFFYAIQFVLSDEFSHLRPEQRLALLHEGTGPRVISAFVEIIFDNSDNRLPIDKEEVSLRRVIGAKKDQYFLDKKMVTKNDVMNLLESAGFSRSNPYYIVKQGKINQMATAPDSQRLKLLREVAGTRVYDERKEESISLMKETEGKREKINELLKYIEERLHTLEEEKEELAQYQKWDKMRRALEYTIYNQELNETRAKLDELSAKRETSGEKSRQLRDAQQDARDKMEDIERQVRELKTKISAMKEEKEQLSAERQEQIKQRTKLELKAKDLQDELAGNSEQRKRLLKERQKLLEKIEEKQKELAETEPKFNSVKEKEERGIARLAQATQERTDLYAKQGRGSQFTSKEERDKWIKKELKSLDQAINDKKRQIAAIHKDLEDTEANKEKNLEQYNKLDQDLNEVKARVEELDRKYYEVKNKKDELQSERNYLWREENAEQQALAAKREDLEKKQQLLRAATGKAILNGIDSINKVLDHFRRKGINQHVQNGYHGIVMNNFECEPAFYTCVEVTAGNRLFYHIVDSDEVSTKILMEFNKMNLPGEVTFLPLNKLDVRDTAYPETNDAIPMISKLRYNPRFDKAFKHVFGKTLICRSMEVSTQLARAFTMDCITLEGDQVSHRGALTGGYYDTRKSRLELQKDVRKAEEELGELEAKLNENLRRNIERINNEIDQLMNQMQQIETQQRKFKASRDSILSEMKMLKEKRQQSEKTFMPKQRSLQSLEASLHAMESTRESLKAELGTDLLSQLSLEDQKRVDALNDEIRQLQQENRQLLNERIKLEGIITRVETYLNENLRKRLDQVEQELNELRETEGGTVLTATTSELEAINKRVKDTMARSEDLDNSIDKTEAGIKELQKSMERWKNMEKEHMDAINHDTKELEKMTNRQGMLLKKKEECMKKIRELGSLPQEAFEKYQTLSLKQLFRKLEQCNTELKKYSHVNKKALDQFVNFSEQKEKLIKRQEELDRGYKSIMELMNVLELRKYEAIQLTFKQVSKNFSEVFQKLVPGGKATLVMKKGDVEGSQSQDEGEGSGESERGSGSQSSVPSVDQFTGVGIRVSFTGKQGEMREMQQLSGGQKSLVALALIFAIQKCDPAPFYLFDEIDQALDAQHRKAVSDMIMELAVHAQFITTTFRPELLESADKFYGVKFRNKVSHIDVITAEMAKDFVEDDTTHG
2 | binds | Clustered mitochondria protein homolog (other) MLLNGDCPESLKKEAAAAEPPRENGLDEAGPGDETTGQEVIVIQDTGFSVKILAPGIEPFSLQVSPQEMVQEIHQVLMDREDTCHRTCFSLHLDGNVLDHFSELRSVEGLQEGSVLRVVEEPYTVREARIHVRHVRDLLKSLDPSDAFNGVDCNSLSFLSVFTDGDLGDSGKRKKGLEMDPIDCTPPEYILPGSRERPLCPLQPQNRDWKPLQCLKVLTMSGWNPPPGNRKMHGDLMYLFVITAEDRQVSITASTRGFYLNQSTAYHFNPKPASPRFLSHSLVELLNQISPTFKKNFAVLQKKRVQRHPFERIATPFQVYSWTAPQAEHAMDCVRAEDAYTSRLGYEEHIPGQTRDWNEELQTTRELPRKNLPERLLRERAIFKVHSDFTAAATRGAMAVIDGNVMAINPSEETKMQMFIWNNIFFSLGFDVRDHYKDFGGDVAAYVAPTNDLNGVRTYNAVDVEGLYTLGTVVVDYRGYRVTAQSIIPGILERDQEQSVIYGSIDFGKTVVSHPRYLELLERTSRPLKILRHQVLNDRDEEVELCSSVECKGIIGNDGRHYILDLLRTFPPDLNFLPVPGEELPEECARAGFPRAHRHKLCCLRQELVDAFVEHRYLLFMKLAALQLMQQNASQLETPSSLENGGPSSLESKSEDPPGQEAGSEEEGSSASGLAKVKELAETIAADDGTDPRSREVIRNACKAVGSISSTAFDIRFNPDIFSPGVRFPESCQDEVRDQKQLLKDAAAFLLSCQIPGLVKDCMEHAVLPVDGATLAEVMRQRGINMRYLGKVLELVLRSPARHQLDHVFKIGIGELITRSAKHIFKTYLQGVELSGLSAAISHFLNCFLSSYPNPVAHLPADELVSKKRNKRRKNRPPGAADNTAWAVMTPQELWKNICQEAKNYFDFDLECETVDQAVETYGLQKITLLREISLKTGIQVLLKEYSFDSRHKPAFTEEDVLNIFPVVKHVNPKASDAFHFFQSGQAKVQQGFLKEGCELINEALNLFNNVYGAMHVETCACLRLLARLHYIMGDYAEALSNQQKAVLMSERVMGTEHPNTIQEYMHLALYCFASSQLSTALSLLYRARYLMLLVFGEDHPEMALLDNNIGLVLHGVMEYDLSLRFLENALAVSTKYHGPKALKVALSHHLVARVYESKAEFRSALQHEKEGYTIYKTQLGEDHEKTKESSEYLKCLTQQAVALQRTMNEIYRNGSSANIPPLKFTAPSMASVLEQLNVINGILFIPLSQKDLENLKAEVARRHQLQEASRNRDRAEEPMATEPAPAGAPGDLGSQPPAAKDPSPSVQG
3 | binds | Heterogeneous nuclear ribonucleoprotein U-like protein 1 (other) MDVRRLKVNELREELQRRGLDTRGLKAELAERLQAALEAEEPDDERELDADDEPGRPGHINEEVETEGGSELEGTAQPPPPGLQPHAEPGGYSGPDGHYAMDNITRQNQFYDTQVIKQENESGYERRPLEMEQQQAYRPEMKTEMKQGAPTSFLPPEASQLKPDRQQFQSRKRPYEENRGRGYFEHREDRRGRSPQPPAEEDEDDFDDTLVAIDTYNCDLHFKVARDRSSGYPLTIEGFAYLWSGARASYGVRRGRVCFEMKINEEISVKHLPSTEPDPHVVRIGWSLDSCSTQLGEEPFSYGYGGTGKKSTNSRFENYGDKFAENDVIGCFADFECGNDVELSFTKNGKWMGIAFRIQKEALGGQALYPHVLVKNCAVEFNFGQRAEPYCSVLPGFTFIQHLPLSERIRGTVGPKSKAECEILMMVGLPAAGKTTWAIKHAASNPSKKYNILGTNAIMDKMRVMGLRRQRNYAGRWDVLIQQATQCLNRLIQIAARKKRNYILDQTNVYGSAQRRKMRPFEGFQRKAIVICPTDEDLKDRTIKRTDEEGKDVPDHAVLEMKANFTLPDVGDFLDEVLFIELQREEADKLVRQYNEEGRKAGPPPEKRFDNRGGGGFRGRGGGGGFQRYENRGPPGGNRGGFQNRGGGSGGGGNYRGGFNRSGGGGYSQNRWGNNNRDNNNSNNRGSYNRAPQQQPPPQQPPPPQPPPQQPPPPPSYSPARNPPGASTYNKNSNIPGSSANTSTPTVSSYSPPQPSYSQPPYNQGGYSQGYTAPPPPPPPPPAYNYGSYGGYNPAPYTPPPPPTAQTYPQPSYNQYQQYAQQWNQYYQNQGQWPPYYGNYDYGSYSGNTQGGTSTQ
4 | binds | Huntingtin-interacting protein 1-related protein (other) MNSIKNVPARVLSRRPGHSLEAEREQFDKTQAISISKAINTQEAPVKEKHARRIILGTHHEKGAFTFWSYAIGLPLPSSSILSWKFCHVLHKVLRDGHPNVLHDCQRYRSNIREIGDLWGHLHDRYGQLVNVYTKLLLTKISFHLKHPQFPAGLEVTDEVLEKAAGTDVNNIFQLTVEMFDYMDCELKLSESVFRQLNTAIAVSQMSSGQCRLAPLIQVIQDCSHLYHYTVKLLFKLHSCLPADTLQGHRDRFHEQFHSLRNFFRRASDMLYFKRLIQIPRLPEGPPNFLRASALAEHIKPVVVIPEEAPEDEEPENLIEISTGPPAGEPVVVADLFDQTFGPPNGSVKDDRDLQIESLKREVEMLRSELEKIKLEAQRYIAQLKSQVNALEGELEEQRKQKQKALVDNEQLRHELAQLRAAQLEGERSQGLREEAERKASATEARYNKLKEKHSELVHVHAELLRKNADTAKQLTVTQQSQEEVARVKEQLAFQVEQVKRESELKLEEKSDQLEKLKRELEAKAGELARAQEALSHTEQSKSELSSRLDTLSAEKDALSGAVRQREADLLAAQSLVRETEAALSREQQRSSQEQGELQGRLAERESQEQGLRQRLLDEQFAVLRGAAAEAAGILQDAVSKLDDPLHLRCTSSPDYLVSRAQEALDAVSTLEEGHAQYLTSLADASALVAALTRFSHLAADTIINGGATSHLAPTDPADRLIDTCRECGARALELMGQLQDQQALRHMQASLVRTPLQGILQLGQELKPKSLDVRQEELGAVVDKEMAATSAAIEDAVRRIEDMMNQARHASSGVKLEVNERILNSCTDLMKAIRLLVTTSTSLQKEIVESGRGAATQQEFYAKNSRWTEGLISASKAVGWGATQLVEAADKVVLHTGKYEELIVCSHEIAASTAQLVAASKVKANKHSPHLSRLQECSRTVNERAANVVASTKSGQEQIEDRDTMDFSGLSLIKLKKQEMETQVRVLELEKTLEAERMRLGELRKQHYVLAGASGSPGEEVAIRPSTAPRSVTTKKPPLAQKPSVAPRQDHQLDKKDGIYPAQLVNY
